Data taken from paper PMC8934283 (Nature, 2022).

What was measured:
Test in all cases: cryo-EM structure
ribosomal protein uS21 = ribosomal protein uS21 (E. coli, UniProt P68679 1-71)
ribosomal protein uS2 = ribosomal protein uS2 (E. coli, UniProt P0A7V0 1-241)
ribosomal protein uS3 = ribosomal protein uS3 (E. coli, UniProt P0A7V3 1-233)
ribosomal protein uS5 = ribosomal protein uS5 (E. coli, UniProt P0A7W1 1-166)
ribosomal protein uS11 = ribosomal protein uS11 (E. coli, UniProt P0A7R9 1-129)

Measured: binding result

B1: E. coli SmrB inactive mutant (99DLH101-ALA) (enzyme)
chain: MKKKTTLSEEDQALFRQLMAGTRKIKQDTIVHRPQRKKISEVPVKRLIQEQADASHYFSDEFQPLLNTEGPVKYVRPDVSHFEAKKLRRGDYSPELFLALAGLTQLQAKQELGALIAACRREHVFCACVMHGHGKHILKQQTPLWLAQHPHVMAFHQAPKEYGGDAALLVLIEVEEWLPPEL
binds: ribosomal protein uS21 | ribosomal protein uS2 | ribosomal protein uS3 | ribosomal protein uS5 | ribosomal protein uS11
